Experiments:
[1] = molecular target: CD59 in membrane extract of lysed CD59-expressing red blood cells (UniProt P13987); test: phage ELISA, membrane extract of CD59(+) red cells coated, anti-M13-HRP; helper phage control
[2] = molecular target: CD59 (target protein) (human) (UniProt P13987); test: phage ELISA, CD59 coated directly, anti-M13-HRP; helper phage control

## M13KO7 helper phage
[1]
  OD490 (Ag+ phage+, CD59(+)red cell): 0.046 OD
[2]
  OD490 (Ag+ phage+): 0.046 OD
